B1: Nb20 (VHH)
VHH: QVQLVESGGGLVQAGGSLRLSCAVSGAGAHRVGWFRRAPGKEREFVAAIGASGGMTNYLDSVKGRFTISRDNAKNTIYLQMNSLKPQDTAVYYCAARDIETAEYIYWGQGTQVTVSS
B2: Nb17 (VHH)
VHH: HVQLVESGGGLVQAGGSLRLSCAASGSIFSSNAMSWYRQAPGKQRELVASITSGGNADYADSVKGRFTISRDKNTVYPEMSSLKPADTAVYYCHAVGQEASAYAPRAYWGQGTQVTVSS
B3: Nb34 (VHH)
VHH: DVQLVESGGGLVQAGGSLRLSCAASGFTFSNYVMYWGRQAPGKGREWVSGIDSDGSDTAYASSVKGRFTISRDNAKNTLYLQMNNLKPEDTALYYCVKSKDPYGSPWTRSEFDDYWGQGTQVTVSS
B4: Nb105 (VHH)
VHH: HVQLVESGGGLVQAGGSLRLSCAVSGRTFSTYGMAWFRQAPGKERDFVATITRSGETTLYADSVKGRFTISRDNAKNTVYLQMNSLKIEDTAVYYCAVRRDSSWGYSRDLFEYDYWGQGTQVTVSS

Tests used:
[1] = biological target: SARS-CoV-2 spike receptor-binding domain (RBD), wild type (SARS-CoV-2, Wuhan-Hu-1 (wild type), UniProt P0DTC2); test: ELISA
[2] = biological target: SARS-CoV-2 spike HexaPro (S), prefusion-stabilized trimer (SARS-CoV-2, Wuhan-Hu-1, HexaPro design, stabilised); test: cell-based or functional assay

Row | Binder | binding result [1] | IC50 of neutralisation of the virus in vitro [2] [µg/mL]
1 | B1 | binds | –
2 | B2 | – | ~0.025
3 | B3 | binds | –
4 | B4 | binds | –

Source: article PMC7987009 (bioRxiv, 2021)
